Starred links: 1 amine or outer side, 2 acyl side, 3 side chain; linkers in the order of their positions; H or OH if unused. Non-standard residues stand in square brackets, D forms with d. Groups on a side chain read outwards from the residue. No end group written: not given here. *: point of attachment. C20 diacid = O=C(O)CCCCCCCCCCCCCCCCCCC(=O)*; C18 diacid = O=C(O)CCCCCCCCCCCCCCCCC(=O)*; Lys(N3) = [N-]=[N+]=NCCCC[C@H](N)C(=O)O; γGlu = O=C(O)[C@H](CCC(=O)[*:2])N[*:1]; Met(O2) = CS(=O)(=O)CC[C@H](N)C(=O)O; AEEA = NCCOCCOCC(=O)O; Aib = CC(C)(N)C(=O)O

From patent US20190175744A1 (Merck Sharp & Dohme, published 2019) come the findings set out here.

Assay in all cases: cell-based or functional assay
The target of assay [1] is human glucagon receptor (human, UniProt P47871 26-477).
Assay [2] concerns the target human GLP-1 receptor (human, UniProt P43220 24-463).
Assay [3] addresses human Glucagon receptor (GCGR) (human, UniProt P47871 26-477).
The target in assay [4] is human GLP-1 receptor (GLP1R) (human, UniProt P43220 24-463).

For the molecule HXQGTFTSDKSKYLDERAAQDFVXWLLDT (D-Ser (s) at 2; Nle(εN3) at 24; C-terminal amide) [PEP69], in assay [1], the “hGCGR_EC50 (cAMP activity assay)” value amounted to 0.31 nM. Further, in assay [2], the “hGLP1R EC50 (cAMP activity assay)” value stood at 0.16 nM.

In the case of H[dS]QGTFTSDK([γGlu-γGlu-C16])SKYLDERAAQDFVQWLLDT-NH2 [Control molecule PEP76 (Table 7)], in assay [3], the “Incretin Receptor Assay (cAMP) EC50, GCGR (Human)” value amounted to 0.009 nM. In assay [4], the “Incretin Receptor Assay (cAMP) EC50, GLP1R (Human)” value came to 0.007 nM.

As for HXEGTFTSDKSKYLDERAAQDFVXWLLDT (D-Ser (s) at 2; Lys 10 K(γEγEC16); Nle(εN3) at 24; C-terminal amide) [PEP75], the “hGCGR_EC50 (cAMP activity assay)” value in assay [1] is > 5 nM. Also, the “hGLP1R EC50 (cAMP activity assay)” value in assay [2] was 0.07 nM.

Regarding H[Aib]QGTFTSDYSKYLDARAAK([AEEA-AEEA-γGlu-C18 diacid])DFV[Lys(N3)]WL[Met(O2)]DT-NH2 [PEP30], the “hGCGR_EC50 (cAMP activity assay)” value in assay [1] was 2.27 nM. Further, the “hGLP1R EC50 (cAMP activity assay)” value in assay [2] worked out at 0.5 nM.

B1: PEP37 (peptide)
peptide: HXQGTFTSDKSKYLDERAAQDFVXWXXDT
modifications: D-Ser (s) at 2; Lys 10 K(γEγEC16); Nle(εN3) at 24; alpha-methyl-L-Leu (αML) at 26; L-methionine sulphone (2) at 27; C-terminal amide
Turning to B1, in assay [1], the “hGCGR_EC50 (cAMP activity assay)” value was 0.06 nM. Besides, the “hGLP1R EC50 (cAMP activity assay)” value in assay [2] came to 0.04 nM.

B2: PEP34 (peptide)
peptide: HXQGTFTSDKSKYLDERAAQXFVXWLXDT
modifications: D-Ser (s) at 2; Lys 10 K(γEγEC16); alpha-methyl-L-Asp (αMD) at 21; Nle(εN3) at 24; L-methionine sulphone (2) at 27; C-terminal amide
B2: the “hGCGR_EC50 (cAMP activity assay)” value in assay [1] was 0.05 nM. Further, in assay [2], the “hGLP1R EC50 (cAMP activity assay)” value came out at 0.05 nM.

B3: PEP35 (peptide)
peptide: HXQGTFTSDKSKYLDERAAQDXVXWLXDT
modifications: D-Ser (s) at 2; Lys 10 K(γEγEC16); alpha-methyl-L-Phe (αMF) at 22; Nle(εN3) at 24; L-methionine sulphone (2) at 27; C-terminal amide
Take B3: in assay [1], the “hGCGR_EC50 (cAMP activity assay)” value stood at 0.05 nM. The “hGLP1R EC50 (cAMP activity assay)” value in assay [2] was 0.05 nM.

B4: PEP74 (peptide)
peptide: HXQGTFTSDKSKYLDERAAQDFVXWLLDT
modifications: HsQGTFTSDK(γEγEC16)…le(ϵN3)WLLDT-NH2 (s=D-serine; K(γEγEC16) at 10; Nle(ϵN3)=azidonorleucine at 24; NH2=C-terminal amide)
For B4, the “Incretin Receptor Assay (cAMP) EC50, GLP1R (Human)” value in assay [4] turned out to be 0.05 nM.

B5: PEP32 (peptide)
peptide: HXQGTFTSXKSKYLDERAAQDFVXWLXDT
modifications: D-Ser (s) at 2; alpha-methyl-L-Asp (αMD) at 9; Lys 10 K(γEγEC16); Nle(εN3) at 24; L-methionine sulphone (2) at 27; C-terminal amide
With B5, the “hGCGR_EC50 (cAMP activity assay)” value in assay [1] amounted to 0.06 nM. Also, the “hGLP1R EC50 (cAMP activity assay)” value in assay [2] is 0.04 nM.

Take H[dS]QGTFTSDKSKYLDERAA[Lys(N3)]DFVQWLLDT-NH2 [PEP71]: the “hGCGR_EC50 (cAMP activity assay)” value in assay [1] came to 0.12 nM. Besides, the “hGLP1R EC50 (cAMP activity assay)” value in assay [2] was 0.06 nM.

B6: PEP31 (peptide)
peptide: H[Aib]QGTFTSDYSKYLDARAAK([AEEA-AEEA-γGlu-C20 diacid])DFV[Lys(N3)]WL[Met(O2)]DT-NH2
modifications: N-terminus assumed
SMILES: CC(C)C[C@H](NC(=O)[C@H](Cc1ccc(O)cc1)NC(=O)[C@H](CCCCN)NC(=O)[C@H](CO)NC(=O)[C@H](Cc1ccc(O)cc1)NC(=O)[C@H](CC(=O)O)NC(=O)[C@H](CO)NC(=O)[C@@H](NC(=O)[C@H](Cc1ccccc1)NC(=O)[C@@H](NC(=O)CNC(=O)[C@H](CCC(N)=O)NC(=O)C(C)(C)NC(=O)[C@@H](N)Cc1c[nH]cn1)[C@@H](C)O)[C@@H](C)O)C(=O)N[C@@H](CC(=O)O)C(=O)N[C@@H](C)C(=O)N[C@@H](CCCNC(=N)N)C(=O)N[C@@H](C)C(=O)N[C@@H](C)C(=O)N[C@@H](CCCCNC(=O)COCCOCCNC(=O)COCCOCCNC(=O)CC[C@H](NC(=O)CCCCCCCCCCCCCCCCCCC(=O)O)C(=O)O)C(=O)N[C@@H](CC(=O)O)C(=O)N[C@@H](Cc1ccccc1)C(=O)N[C@H](C(=O)N[C@@H](CCCCN=[N+]=[N-])C(=O)N[C@@H](Cc1c[nH]c2ccccc12)C(=O)N[C@@H](CC(C)C)C(=O)N[C@@H](CCS(C)(=O)=O)C(=O)N[C@@H](CC(=O)O)C(=O)N[C@H](C(N)=O)[C@@H](C)O)C(C)C
As to B6, in assay [1], the “hGCGR_EC50 (cAMP activity assay)” value is 4.24 nM. Also, the “hGLP1R EC50 (cAMP activity assay)” value in assay [2] stood at 1.38 nM.
